Experimental findings from patent US9217013B2, “Treatment of amyloidoses using myelin basic protein and fragments thereof” (The Research Foundation for the State University of New York, priority 2008, dated 2015) are described below.

The test system of series [1] is Aβ. Kind of series: Recombinant MBP regions tested for ability to bind Aβ and inhibit fibrillogenesis. The format is binding. Conditions: Aβ form not stated. The method, then: (§1) Using recombinant methodology to express and purify regions of the 18.5 kDa human MBP protein and test their abilities to bind Aβ and inhibit fibrillogenesis, cDNAs were prepared for the following regions of MBP shown in FIG. 3. The cDNAs for MBP fragments were cloned into pTYB11 plasmids containing an ampr gene and transformed into competent E. coli BL21 DE3 cells. Expression of cDNAs in this vector results in a fusion protein containing a chitin binding domain (CBD) as well as a self-cleavable intein protein from S. cerevisiae. CBD-Intein-MBP fusion proteins were captured on chitin beads from the resulting cell lysates. MBP protein fragments were eluted by inducing the cleavage between the C-terminus of the intein and the N-terminus of MBP by exposure to dithiothreitol. […] MBP was further purified by cation exchange chromatography on CM52 resin, resulting in a >95% pure protein preparations. Each of the four MBP fragments were tested for binding to Dutch/Iowa Aβ40 and wild-type Aβ42 by surface plasmon resonance (FIG. 4).
Such a motif, KRGX1X2X3X4X5X6HP (SEQ ID NO:1), was found in MBP 33-64 and in AβPP 54-64. Specifically, the motif in MBP spans residues 54-64. […]

The target in series [2] is T1, fibrillar Dutch-type Aβ-(1-40) (Homo sapiens, UniProt P05067, E693Q).
T1 construct: made in house; host or cells: chemical synthesis (solid-phase Fmoc)
In words: Solid-phase binding of GST-AβPP-(18-119) proteins to fibrillar Dutch-type Aβ. The note with it: for binding to fibrillar Aβ compared with wild-type GST-AβPP-(18-119): alanine substitution mutants. As for the experimental part:
(§2) Aβ peptides or amylin were assembled into fibrils as described above. […] Two μg of each fibrillar Aβ peptide, fibrillar amylin, or ovalbumin in 100 μl of phosphate-buffered saline (PBS) were dried in a 96-well microtiter plate (Corning, Cambridge, Mass.) overnight at 37° C. The wells were rinsed with PBS three times and blocked with 100 μl per well PBS containing 1 mg/ml bovine serum albumin (BSA) for 1 hour at room temperature. After rinsing three times with PBS, known concentrations of biotinylated sAβPPα in PBS containing 0.1 mg/ml BSA were incubated in triplicate (100 μl per well) for 1 hour at room temperature. After rinsing the wells with PBS three times, 100 μl of streptavidin conjugated to horseradish peroxidase in PBS containing 0.1 mg/ml BSA (1:800) was added for 1 hour at room temperature. The binding of biotinylated sAβPPα was detected using the colorimetric substrate o-phenylenediamine dihydrocholride as described by the manufacturer (InVitrogen). Briefly, the substrate was diluted in buffer (0.1 M sodium citrate, pH 4.5) to a final concentration of 1 mg/ml. H202 was added to a final concentration of 0.012% immediately before 100 μl of the substrate was added to each microtiter well. The solution was developed for =30 min at room temperature and quenched by the addition of 50 μl of 4N H2SO4 to each well. The conversion of the colorimetric substrate was measured at a wavelength of 490 nm using a Molecular Dynamics Vmax kinetic plate reader (Sunnyvale, Calif.).
(§3) Bound secondary antibody was detected using the colorimetric substrate as described above.
However, this small peptide was not nearly as effective as the larger, recombinantly expressed AβPP-(18-119) in binding to fibrillar Aβ. Therefore, alanine-scanning mutagenesis studies of the AβPP-(105-119) sequence within AβPP-(18-119) were performed to further identify key epitopes important in facilitating its binding to fibrillar Aβ. Alanine residues were introduced from Cys^105 through Cys^117 of AβPP-(18-119) by site-directed mutagenesis of the AβPP-(18-119) cDNA. Each mutant AβPP-(18-119) cDNA was expressed as a GST fusion protein and purified, and the concentrations were carefully determined by quantitative immunoblotting as described in “Experimental Procedures”.

Series [3] concerns the target T2, fibrillar amylin peptide (Homo sapiens, UniProt P10997).
T2 construct: Amylin peptide was obtained from Bachem (San Carlos, Calif.); purchased Bachem (San Carlos, Calif.)
T2 sequence (P10997 34-70 limits assumed): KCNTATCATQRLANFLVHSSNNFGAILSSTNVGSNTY
Kind of series: Solid-phase binding of GST-AβPP-(18-119) proteins to fibrillar amylin. As for the experimental part: as §2, with “H202 was added to a final concentration of 0.012% immediately before 100 μl of the substrate was added to each microtiter well. The solution was developed for =30 min at room temperature and quenched by the addition of 50 μl of 4N H2SO4 to each well.” left out
as §3

For series [4], the target named is T3, fibrillar wild-type Aβ-(1-42) (Homo sapiens, UniProt P05067).
T3 construct: made in house; host or cells: chemical synthesis (solid-phase Fmoc)
In words: Solid-phase binding of GST-AβPP-(18-119) proteins to fibrillar wild-type Aβ-(1-42). The method, then: as §2, with “H202 was added to a final concentration of 0.012% immediately before 100 μl of the substrate was added to each microtiter well. The solution was developed for =30 min at room temperature and quenched by the addition of 50 μl of 4N H2SO4 to each well.” left out
as §3

In series [5] the test system is HCSM cells. Kind of series: HCSM cell viability (live/dead assay) after Dutch-type Aβ-(1-40). The format is cell-based, human. The note with it: 25 μM Dutch-type Aβ-(1-40), 1 μM protein, 6 days at 37° C. The text has this: Primary cultures of HCSM cells were established and characterized. Two lines of HCSM cells were used in these studies. One was derived from a AD patient and the other was derived from a person control. All HCSM cells were used between passages 4-7 and maintained in 24-well tissue culture dishes with Dulbecco's […] containing 10% fetal bovine serum (Gemini Bio-Products, Calabasas, Calif.), non-essential amino acids, and antibiotics (Invitrogen). For experiments, near-confluent cultures of HCSM cells were placed in serum-free medium containing 0.1% BSA, non-essential amino acids, and antibiotics overnight prior to treatment. Freshly solubilized Dutch-type Aβ-(1-40) at a final concentration of 25 μM was added to the cultures in serum-free medium and incubated at 37° C. for 6 days. Cells were routinely viewed and photographed using an Olympus IX70 phase-contrast microscope. Cell viability was quantified using a fluorescent live/dead cell assay following the manufacturer's protocol (Molecular Probes, Eugene, Oreg.). The number of live and dead cells were counted from several fields (n=4) from at least three separate wells for each experiment.
Incubation of HCSM cells with pathogenic Dutch-type Aβ-(1-40) leads to cell death. […]

For series [6], the target named is T4, fibrillar Aβ (Homo sapiens, UniProt P05067, E693Q).
T4 construct: made in house; host or cells: chemical synthesis (solid-phase Fmoc)
In words: Solid-phase binding assay, competition against biotinylated sAβPPα.
Protocol: Aβ peptides or amylin were assembled into fibrils as described above. […] Two μg of each fibrillar Aβ peptide, fibrillar amylin, or ovalbumin in 100 μl of phosphate-buffered saline (PBS) were dried in a 96-well microtiter plate (Corning, Cambridge, Mass.) overnight at 37° C. The wells were rinsed with PBS three times and blocked with 100 μl per well PBS containing 1 mg/ml bovine serum albumin (BSA) for 1 hour at room temperature. After rinsing three times with PBS, known concentrations of biotinylated sAβPPα in PBS containing 0.1 mg/ml BSA were incubated in triplicate (100 μl per well) for 1 hour at room temperature. After rinsing the wells with PBS three times, 100 μl of streptavidin conjugated to horseradish peroxidase in PBS containing 0.1 mg/ml BSA (1:800) was added for 1 hour at room temperature. The binding of biotinylated sAβPPα was detected using the colorimetric substrate o-phenylenediamine dihydrocholride as described by the manufacturer (InVitrogen). Briefly, the substrate was diluted in buffer (0.1 M sodium citrate, pH 4.5) to a final concentration of 1 mg/ml. H202 was added to a final concentration of 0.012% immediately before 100 μl of the substrate was added to each microtiter well. […] The conversion of the colorimetric substrate was measured at a wavelength of 490 nm using a Molecular Dynamics Vmax kinetic plate reader (Sunnyvale, Calif.). […]

The target in series [7] is T5, HCSM cell surface fibrillar Aβ (Homo sapiens, UniProt P05067, E693Q).
T5 construct: made in house; host or cells: chemical synthesis (solid-phase Fmoc)
Kind of series: Endogenous sAβPPα binding to fibrillar Aβ on HCSM cell surface. The class given is cell-based. The note with it: AβPP-(105-119) at higher concentrations.

Series [8] has as its target Dutch/Iowa CAA mutant Aβ40 (Aβ40DI) (Homo sapiens, UniProt P05067, D694N/E693Q). Kind of series: Surface plasmon resonance binding to immobilized Dutch/Iowa Aβ40. The method, then: All runs were performed on a Biacore 2000 instrument using 10 mM HEPES (pH 7.4), 150 mM NaCl, 3 mM EDTA, and 0.005% (v/v) Tween 20 as running buffer and diluent. Streptavidiri was conjugated to the surface of three flow cells of a CM5 chip at 10 μl/min using amine coupling chemistry to a final average response level of 1890.2 response units. N-terminally biotinylated Aβ peptides were resuspended in Me2SO to 2.5 mM and serially diluted to 13 nM immediately before application. Biotinylated Aβ40WT and Aβ40DI were bound to individual flow cells at 10 μl/min to achieve an average relative response level of 157.1 response units, leaving flow cell 1 as reference. […] The resultant Rmax of these surfaces was ˜700 response units with MBP as analyte. Purified MBP was passed over all four flow cells at 5, 10, 25, 50, and 100 nM at a flow rate of 30 μl/min for kinetic measurements. […] Surfaces were regenerated with 0.2 M glycine (pH 2.0) and 150 mM NaCl between runs. The resulting sensorgrams were analyzed by BIAanalysis software. Triplicate concentration series were used for each surface.
as §1

The target in series [9] is Aβ40DI (Homo sapiens, UniProt P05067, D694N/E693Q). Kind of series: Thioflavin T fluorescence assay of Aβ40DI fibril formation. The format is biochemical. Conditions: 12.5 μM Aβ40DI, 1.56 μM protein, PBS, 37° C. The method, then:
FIG. 16 Thioflavin T analysis of inhibition of CAA mutant Aβ fibril formation by MBP. Aβ40DI at a concentration of 12.5 μM in PBS in the absence (□) or presence of 1.56 μM MBP(□) or bovine a-lactalbumin (Lalb; □) as a control. At specific time points, aliquots were collected from each sample and analyzed by thioflavin T binding and fluorescence to determine fibrillar assembly. Data represent the means±S.D. of triplicate samples. A.U., arbitrary units.
The Aβ B binding properties of the exemplary fragments of MBP described herein were determined in a thioflavin T fluorescence assay as follows: Lyophilized Aβ peptides were first resuspended with Me2SO to 2.5 mM, diluted to 12.5 μM in PBS, and then incubated at 37° C. with rocking either alone or with 1.56 μM MBP or bovine α-lactalbumin. Control samples containing 0.5% Me2SO and 1.56 μM MBP or lactalbumin in PBS were also included. At each time point, 100 μl samples of each reaction were placed in a 96-well microplate in triplicate, and 5 μl of 100 µM thioflavin T was added. The plate was mixed and incubated at 22° C. in the dark for 10 min. Fluorescence was measured at 490 nm with an excitation wavelength of 446 nm in a SpectraMax spectrofluorometer (Molecular Devices, Sunnyvale, Calif.) using SoftMax Pro control software. It is apparent that the method enables persons of skill in the art to determine the binding properties of MBP, variants thereof, and fragments thereof for any Aβ-peptide, including mutants thereof.

Residue numbers refer to the chain shown, from its start. Names and notes keep the numbering of the source.

With “MBP 50-64: MBP residues 50-64, RGAPKRGSGKDSHHP (SEQ ID NO: 51)”, in series [1], the “abilities to bind Aβ and inhibit fibrillogenesis” value was “carries all the binding activity”.

Turning to P109A, the “binding to fibrillar Aβ compared with wild-type GST-AβPP-(18-119)” value in [2] was “little or no effect”.

For “I113A: GST-AβPP-(18-119) with alanine substitution at Ile113”, in series [3], the “binding to fibrillar amylin peptide compared with wild-type GST-AβPP-(18-119)” value is on record as “considerably reduced binding”. Also, the “binding to fibrillar wild-type Aβ-(1-42) compared with wild-type GST-AβPP-(18-119)” value in [4] was “considerably reduced binding”. Besides, the “binding to fibrillar Aβ compared with wild-type GST-AβPP-(18-119)” value in series [2] is given as “markedly decreased binding”; in [2] (listed as Ile^113) it was “highly diminished”.

In the case of “H110A mutant GST-AβPP-(18-119): GST-AβPP-(18-119) with alanine substitution at His110”, the “binding to fibrillar amylin peptide compared with wild-type GST-AβPP-(18-119)” value in series [3] was “considerably reduced binding”. The “prevention of Aβ-induced HCSM cell death” value in series [5] is “incapable of preventing the cytotoxic effects”. For the same molecule, the “binding to fibrillar wild-type Aβ-(1-42) compared with wild-type GST-AβPP-(18-119)” value in series [4] is given as “considerably reduced binding”. The “fibrillar Aβ binding compared with wild-type GST-AβPP-(18-119)” value in series [2] is under 10%. Moreover, the “binding to fibrillar Aβ compared with wild-type GST-AβPP-(18-119)” value in [2] (listed as H110A) is “markedly decreased binding”; in series [2] (listed as His^110), “highly diminished”.

Take “C117A mutant GST-AβPP-(18-119): GST-AβPP-(18-119) with alanine substitution at Cys117”: the results for the “binding to fibrillar Aβ compared with wild-type GST-AβPP-(18-119)” value in [2] and in series [2] (listed as C117A) were “markedly diminished binding” and “substantially affects”, respectively.

As for “AβPP-(102-116): synthesized overlapping 15-mer peptide of AβPP residues 102-116 (RKQCKTHPHFVIPYR)”, the “competing activity of overlapping 15-mer peptides” value in series [6] (data not shown) is on record as “approximately half that of AβPP-(105-119)”.

In the case of F111A, the “binding to fibrillar Aβ compared with wild-type GST-AβPP-(18-119)” value in [2] was “little or no effect”.

Turning to “GST-AβPP-(18-119): glutathione S-transferase fusion protein of AβPP residues 18-119, wild-type”, the “Aβ-induced HCSM cell death” value in series [5] is under 10%. Further, the “inhibition of endogenous sAβPPα binding to HCSM cell surface fibrillar Aβ” value in series [7] is given as “completely inhibited”.

For “AβPP-(105-119): synthesized 15 amino acid peptide spanning residues 105-119 of AβPP (CKTHPHFVIPYRCLV)”, the “inhibition of endogenous sAβPPα binding to HCSM cell surface fibrillar Aβ” value in series [7] is “partially diminish”. Also, the “competition of biotinylated sAβPPα binding to fibrillar Aβ” value in series [6] (1 mM peptide) was “≈ 80%”.

B1: MBP1 ΔKRG: MBP1 mutant with alanine substitutions in the KRG region (residues 54-56) (protein)
chain: MASQKRPSQRHGSKYLATASTMDHARHGFLRPHRDTGILDSIGRFFGGDRGAPAAASGKDSHHP
Consider B1, for which, in series [8], the “binding to Dutch/Iowa Aβ40 (Aβ40DI) by surface plasmon resonance” value (from here on “binding to Dutch/Iowa Aβ40 (Aβ40DI)”) was “do not bind”. Moreover, the “inhibition of Aβ40DI fibril assembly (thioflavin T)” value in series [9] is “lack fibril inhibition”.

B2: MBP1 ΔHP: MBP1 mutant with alanine substitutions at HP (residues 63-64) (protein)
chain: B1 chain with A54K, A55R, A56G, H63A, P64A
Consider B2, for which the “binding to Dutch/Iowa Aβ40 (Aβ40DI)” value in [8] is reported as “do not bind”. In series [9], the “inhibition of Aβ40DI fibril assembly (thioflavin T)” value is on record as “lack fibril inhibition”.

B3: MBP1 S57A (protein)
chain: B1 chain with A54K, A55R, A56G, S57A
On to B3, for which the “binding to Dutch/Iowa Aβ40 (Aβ40DI)” value in series [8] is reported as “does bind”.
